According to publication PMC3901395, “Multivalent interactions of the SUMO-interaction motifs in RING finger protein 4 determine the specificity for chains of the SUMO” (Biochemical Journal, 2013):

Tests used:
[1] = biological target: 3xSUMO2ΔN11 (tri-SUMO2); assay: ITC binding to linear tri-SUMO2 (3xSUMO2ΔN11)
Text: (§1) For expression in Escherichia coli, linear poly-SUMO chains were generated as described previously with slight modifications. After the combined PCR/ligation reaction, the 4×SUMO2-ΔN11 or 4×SUMO1-ΔN15 DNA polymers were separated from smaller polymers by agarose gel electrophoresis and individually extracted (Macherey–Nagel). These were then subjected to a second PCR with primers to create BamHI and XhoI restriction sites, a C-terminal GG motif and a stop codon. The resulting fragments coding for di-, tri- and tetra-SUMO2-ΔN11 or SUMO1-ΔN15 chains were amplified and cloned into pGEX-4T2. […] Each monomer in these chains is separated by RS replacing the natural GG motif. A similar strategy was used to design C-terminally GFP–HA2-tagged linear poly-SUMOs in the copper-inducible Ycplac22 vector for expression in S. cerevisiae. […]
(§2) The mono-SUMOs and linear poly-SUMO1 and poly-SUMO2 proteins as well as all RNF4 constructs were expressed as GST-fusion proteins from E. coli Rosetta™ 2(DE3)pLysS cells (Novagen) cultivated in LB medium with 100 μg/ml ampicillin and 30 μg/ml chloramphenicol after induction with 0.1 mM IPTG at 20°C for 12 h. […]
(§3) Binding of peptides and proteins to SUMOs was investigated by ITC using either a VP-ITC or an ITC200 (GE Healthcare). […] Protein concentrations were determined by measuring the absorption at 280 nm. […]

[2] = biological target: T1, 2xSUMO2ΔN11 (di-SUMO2) (Homo sapiens, UniProt P61956); assay: ITC binding to linear di-SUMO2 (2xSUMO2ΔN11); details: 50 mM Tris/HCl pH 7.5, 150 mM NaCl, 2 mM DTT, 5% glycerol, 25°C, averaged from two to six titrations, read-out: Dissociation constant (KD), 2xSUMO2ΔN11 (linear di-SUMO2)
T1 construct: Each monomer in these chains is separated by RS replacing the natural GG motif; a C-terminal GG motif and a stop codon; GST (N, cleaved yes); made in house; host or cells: E. coli Rosetta 2(DE3)pLysS
Text: as §1, §2, §3

[3] = system: mono-SUMOs and SUMO chains; assay: ITC binding to mono-SUMOs and SUMO chains (general statements); details: mono-SUMO1 and mono-SUMO2
Text: as §1, §2, §3

[4] = biological target: 4xSUMO2ΔN11 (tetra-SUMO2); assay: ITC binding to linear tetra-SUMO2 (4xSUMO2ΔN11); details: 50 mM Tris/HCl pH 7.5, 150 mM NaCl, 2 mM DTT, 5% glycerol, 25°C, averaged from two to six titrations, read-out: Dissociation constant (KD), 4xSUMO2ΔN11 (tetra-SUMO2)
Text: as §1, §2, §3

[5] = biological target: native 2xSUMO2 ('native' Lys^11-linked di-SUMO2 chains); assay: ITC binding to native Lys^11-linked di-SUMO2; details: 50 mM Tris/HCl pH 7.5, 150 mM NaCl, 2 mM DTT, 5% glycerol, 25°C, averaged from two to six titrations, chains produced by in vitro SUMOylation, read-out: Dissociation constant (KD), native Lys^11-linked di-SUMO2
Procedure: The mono-SUMOs and linear poly-SUMO1 and poly-SUMO2 proteins as well as all RNF4 constructs were expressed as GST-fusion proteins from E. coli Rosetta™ 2(DE3)pLysS cells (Novagen) cultivated in LB medium with 100 μg/ml ampicillin and 30 μg/ml chloramphenicol after induction with 0.1 mM IPTG at 20°C for 12 h. Cells were lysed by sonication in GST-buffer I (50 mM Tris/HCl, pH 7.5, 150 mM NaCl and 2 mM DTT) in the presence of protease inhibitors (1 μg/ml aprotinin, 1 μg/ml leupeptin, 1 μg/ml pepstatin, 200 μM pefabloc and 100 μM PMSF). For tetra-SUMOs and RNF4 variants, 1.5% sarkosyl, 0.1% Triton X-100 and 5% glycerol were added. The proteins were affinity purified using glutathione beads (Protino® Glutathione Agarose 4B, Macherey–Nagel) and eluted by thrombin cleavage. The supernatant was subjected to anion exchange chromatography and further purified by SEC (size-exclusion chromatography) into ITC buffer (50 mM Tris/HCl, pH 7.5, 150 mM NaCl, 2 mM DTT and 5% glycerol) or in crystallization buffer (20 mM Tris/HCl, pH 7.5, and 100 mM NaCl). Native SUMO2 chains were produced by in vitro SUMOylation as described recently and subsequently purified by affinity chromatography and SEC.
as §3

[6] = biological target: 4xSUMO1ΔN15 (tetra-SUMO1); assay: ITC binding to linear tetra-SUMO1 (4xSUMO1ΔN15); details: 50 mM Tris/HCl pH 7.5, 150 mM NaCl, 2 mM DTT, 5% glycerol, 25°C, averaged from two to six titrations, read-out: Dissociation constant (KD), 4xSUMO1ΔN15 (tetra-SUMO1)
Text: as §1, §2, §3

[7] = biological target: 2xSUMO1ΔN15 (di-SUMO1); assay: ITC binding to linear di-SUMO1 (2xSUMO1ΔN15); details: 50 mM Tris/HCl pH 7.5, 150 mM NaCl, 2 mM DTT, 5% glycerol, 25°C, averaged from two to six titrations, read-out: Dissociation constant (KD), 2xSUMO1ΔN15 (linear di-SUMO1)
Text: as §1, §2, §3

T1 sequence (P61956 with tags, fused parts or gaps): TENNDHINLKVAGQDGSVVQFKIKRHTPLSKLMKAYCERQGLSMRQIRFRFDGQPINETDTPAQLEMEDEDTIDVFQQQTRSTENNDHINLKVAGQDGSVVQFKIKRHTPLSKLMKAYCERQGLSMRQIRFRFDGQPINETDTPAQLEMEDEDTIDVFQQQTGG

Kd ([1]; 50 mM Tris/HCl pH 7.5, 150 mM NaCl, 2 mM DTT, 5% glycerol, 25°C, averaged from two to six titrations, read-out: Dissociation constant (KD), 3xSUMO2ΔN11 (tri-SUMO2)): 19 µM
Kd [2]: 14 µM
affinity for mono-SUMOs [3]: very weak
Kd [4]: 1.6 µM
Kd [5]: 11 µM
Kd [6]: 4.3 µM
Kd [7]: 17 µM
B1: SIM domain: construct comprising the entire N-terminal part of RNF4 upstream of the RING domain (N-terminal 1–125 amino acids) (protein)
chain: MSTRKRRGGAINSRQAQKRTREATSTPEISLEAEPIELVETAGDEIVDLTCESLEPVVVDLTHNDSVVIVDERRRPRRNARRLPQDHADSCVVSSDDEELSRDRDVYVTTHTPRNARDEGATGLR
modifications: left off: GST, end not stated, cleaved
affinity for tri-SUMO compared with di-SUMO ([1]; tri-SUMO2): did not result in an increase in affinity
